{"source": "patent CN114773459A", "about": "(UNIV SHENZHEN, dated 2022)", "experiment_in_all_cases": "BLI, biotinylated S1 variant on streptavidin sensor", "key": {"[1]": {"biological_target": "T1, SARS-COV2 突变株 S1 Omicron BA.2 (SARS-CoV-2 Omicron BA.2, UniProt P0DTC2 16-685)", "T1 construct": "domain: S1; also called Omicron BA.2的S1; Omicron突变体"}, "[2]": {"biological_target": "T2, SARS-COV2 突变株 S1 Alpha B.1.1.7 (SARS-CoV-2 Alpha B.1.1.7, UniProt P0DTC2 16-685)", "T2 construct": "domain: S1; also called Alpha B.1.1.7的S1; Alpha突变体"}, "[3]": {"biological_target": "T3, SARS-COV2 突变株 S1 Delta B.1.617.2 (SARS-CoV-2 Delta B.1.617.2, UniProt P0DTC2 16-685)", "T3 construct": "domain: S1; also called Delta B.1.617.2的S1; Delta突变体"}}}
{"binder": "纳米抗体Nb-H6 (VHH) VHH: QLVESGGGLVQAGDSLRLSCAASERALSSFHMGWFRQAPGKQRAFVAAIKWRDGTTYYADSVKGRFTISRDNAKNTVYLQMNSLEPEDTAVYYCYYRGRWGTYWGQGTQVTVSS", "values": [{"measurement": "Kd", "setting": "[1]", "result": 0.2, "unit": "µM"}, {"measurement": "Kd", "setting": "[2]", "result": 1.08, "unit": "µM"}, {"measurement": "Kd", "setting": "[3]", "result": 1.12, "unit": "µM"}]}
